From the DeepSol protein solubility set come the findings set out here.

This data set can be described thus: soluble on expression in E. coli; label from the status in PepcDB or PDB records.
Take “MAKKLFAFLGIGDYKSVEYYFQNKKEGYKTEYIQEAITKLLNEQDLNVTVFVTAEARKKHWEPENNKGLESRLKKLNINCKAVNIPDGKANDDVWKIFTSVYSEIEFNDEIYVDVTHSLRNIPIIFMSVLNYAKVTKNCTIKGIFYGAYEAKENERAPIYDLTLFDQIGEWSSGVEQLLTTGECEMFCSTVEKTLDPLLREAKGKDELIKLVKKCSKLIKEFYTDLKLVRGKSVLEDGRKLYQVLCEIKALNTEKHITMQPFFHILERVENQVAFFQNENLIENILECVKLCKKFGQYQQAYTFLRENIINYVCINTGLDWKKEDPDRLKAEELIGKLYMRKIKKVQIEVSEDIKSILENGEDFICDDAIELFGELIEFRNDLDHAQFRMINPSKDKITCKLDSFIERFEKYYISK”: the “soluble on expression in E. coli” value is given as “not soluble”.
Under “MAKKTSSGRGKLPPGPTPLPVIGNILQIGIKDISKSLTNLSKVYGPVFTLYFGLKPIVVLHGYEAVKEALIDLGEEFSGRGIFPLAERANRGFGIVFSNGKKWKEIRRFSLMTLRNFGMGKRSIEDRVQEEARCLVEELRKTKASPCDPTFILGCAPCNVICSIIFHKRFDYKDQQFLNLMEKLNENIKILSSPWIQICNNFSPIIDYFPGTHNKLLKNVAFMKSYILEKVKEHQESMDMNNPQDFIDCFLMKMEKEKHNQPSEFTIESLENTAVDLFGAGTETTSTTLRYALLLLLKHPEVTAKVQEEIERVIGRNRSPCMQDRSHMPYTDAVVHEVQRYIDLLPTSLPHAVTCDIKFRNYLIPKGTTILISLTSVLHDNKEFPNPEMFDPHHFLDEGGNFKKSKYFMPFSAGKRICVGEALAGMELFLFLTSILQNFNLKSLVDPKNLDTTPVVNGFASVPPFYQLCFIPIHHHH” stands “soluble”.
Under “MAKKVAICTLLYSRDYLPGALTLAYQLQKLLKHAVVEDEITLCLLIEKKLFGDEFKPQEIALIRSLFKEIIIIEPLKDQEKSIEKNKANLELLKRPELSHTLLKARLWELVQFDQVLFLDADTLPLNKEFFEILRLYPEQTRFQIAAVPDIGWPDMFNTGVLLLIPDLDMATSLQDFLIKTVSIDGADQGIFNQFFNPICNYSKEVLHKVSPLMEWIRLPFTYNVTMPNYGYQSSPAMNFFQQHIRLIHFIGTFKPWSRNTTDYDDHYYQLWRSTQRELYSECHLSNYFTHLQLGNIETETNFYHEPPCLQDLLNHGKRENQKHVDLDITSVDRNASQKSTAEKHDIEKPTSKPQSAFKFDWESTDYLDRVQRAFPKPDT” stands “soluble”.
Under “MAKLRPYYEESQSAYDISDDFFALFLDPTWVYTCAYFERDDMTLEEAQLAKVDLALDKLNLEPGMTLLDVGCGWGGALVRAVEKYDVNVIGLTLSRNHYERSKDRLAAIGTQRRAEARLQGWEEFEENVDRIVSFEAFDAFKKERYLTFFERSYDILPDDGRMLLHSLFTYDRRWLHEQGIALTMSDLRFLKFLRESIFPGGELPSEPDIVDNAQAAGFTIEHVQLLQQHYARTLDAWAANLQAARERAIAVQSEEVYNNFMHYLTGCAERFRRGLINVAQFTMTK” stands “soluble”; under “MAKLTRLGDLERAVMDHLWSRTEPQTVRQVHEALSARRDLAYTTVMTVLQRLAKKNLVLQIRDDRAHRYAPVHGRDELVAGLMVDALAQAEDSGSRQAALVHFVERVGADEADALRRALAELEAGHGNRPPAGAATET”, “soluble”.
On to “MAKPSDSADICQAPVQTAQAPLPKDSALDDLIGYAMRRAQLKLFQNLIGRLSAHDLRPAQFSALAIIEQTPGLMQADLAKALAIEPPQVVPLLNKLEERALAVRVRCKPDKRSYGIFLSKTGETLLRELKQIAVDSDLDSTSALDNQERNDLLRLLKKVYQS”, for which the “soluble on expression in E. coli” value is given as “not soluble”.
For “MAKRILCFGDSLTWGWVPVEDGAPTERFAPDVRWTGVLAQQLGADFEVIEEGLSARTTNIDDPTDPRLNGASYLPSCLATHLPLDLVIIMLGTNDTKAYFRRTPLDIALGMSVLVTQVLTSAGGVGTTYPAPKVLVVSPPPLAPMPHPWFQLIFEGGEQKTTELARVYSALASFMKVPFFDAGSVISTDGVDGIHFTEANNRDLGVALAEQVRSLL”, the “soluble on expression in E. coli” value is “soluble”.
Under “MAKSRTIYVCAECGGTSLKWQGKCPHCSAWNTLEETVESAASSAGGHRYAPLAAASPVRSLSEIEARETPRQPTGLDEFDRVLGGGLVAGAVVLIGGDPGIGKSTLLLQALASLSATTKVLYVTGEESAEQVALRARRLGLQTGNVDLLAEIRLEAIQAAVSEQKPTVAVIDSIQTLYSGELTAAPGSVSQVRECAAQLTRLAKQTGIAIVMIGHVTKDGALAGPRVLEHIVDTVLYFEGDTHSSFRLVRAFKNRFGAVNELGVFAMTDRGLRGVANPSALFLSQHQQQVAGSCVLATQEGTRPLLVEVQALVDTSHAPNPRRLTVGLEGNRLAMLLAVMHRHAGVSTYDQDVFVNAVGGVRITEPAADLPVLLAIMSSLRDKPLPAGLVAFGEIGLAGEIRPAPRGQERLREAAKLGFSVALIPKANAPRQPIEGLEIWAVDRLDAALDKLRLEHHHHHH” stands “not soluble”; under “MAKVLVLYYSMYGHIETMARAVAEGASKVDGAEVVVKRVPETMPPQLFEKAGGKTQTAPVATPQELADYDAIIFGTPTRFGNMSGQMRTFLDQTGGLWASGALYGKLASVFSSTGTGGGQEQTITSTWTTLAHHGMVIVPIGYAAQELFDVSQVRGGTPYGATTIAGGDGSRQPSQEELSIARYQGEYVAGLAVKLNG”, “soluble”.
Under “MAKVRIYQLAKELGMETQELLELLDQMGVAYKSHASTLEEKDAEAVRELVKEQRGLQEKLAEEERRKSLPRRPPVVVIMGHVDHGKTTLLDYLRKSRIAEKEAGGITQHVGAFEVKTPQGTVVFIDTPGHEAFTTIRQRGAKVADIAVIVIAADDGIMPQTEEAIAHAKAAGAKLIFAINKIDLPQADPEKVKRQLMERGFVPEEYGGDAIVIPISAKTGQGVQDLLEMILLLAELEDYRADPNAEPRGVILESKLDKQAGIIANMLVQEGTFRVGDYVVAGEAYGRIRAMMDADGNQRKEAGPGSAVQVLGFQELPHAGDVVEWVPDLEAAKEIAEERKEERKAREEEEKARRPRTMAELLRAMQEEGRKELNLILRADTQGSLEAIQHILARESTEDVKINILLAQVGAPTESDVLLAQTANAAILAFGVNPPGSVKKKAEEKGVLLKTFRIIYDLVDEVRNMVKGQREPQYKEEVLGQAEVRAIFRLPTGKQVAGCMVTQGRIPRNAEVRVLRDGQVIWQGRIASLKRFKEDVREVAQGYECGIGLDGFDDFREGDVIEAFQMVEVPA” stands “soluble”; under “MAKYQTIEAAVRSEFGKGSARRARVAGQIPAVVYGADVESNLHVTIDHRTFAALVRQEGVNAVLELDIEGQKQLTMIKHIDQNVLTFHIDHLDLLAI”, “not soluble”; under “MAKYSEQFKLTVVKAYLAGNIGFRKVSSQFSIDSSLLRRWVANYKSHGHTGHRKPGLRYSEAFKRSVLEHKREHGLSLRQTAAHFGIGDPGQIVIWEQQHYSNDLAPYVPKRRKSVAMPKKPYPTAPVIDDDTQKTRDQLMAELEYLRMENAYLKKLEELKEQQRRQKKKPLEHHHHHH”, “soluble”.
On to “MALACTDSANSTFSRVDSPTSGPSDQLTTHDLDRHIEKLMRCELIAEQDVKTLCAKAREILAEEGNVQVIDSPVTICGDIHGQFYDLMELFKVGGPVPNTNYLFLGDFVDRGFYSVETFLLLLALKARYPDRMMLIRGNHESRQITQVYGFYDECLRKYGNASVWKHCTEVFDYLSLAAVIDGKVFCVHGGLSPSISTMDQIRVIDRKQEVPHDGPMCDLLWSDPEEGNVGWGLSPRGAGYLFGADASKTFCETNGVDLICRAHQLVMEGYKWHFNEKVLTVWSAPNYCYRCGNVAAILELDENLNKEFTIFEAAPQENRGAPAKKPHADYFL”, for which the “soluble on expression in E. coli” value is “not soluble”.
Under “MALATRNLKVIHIKRIENSRSSLIRANHGSKGIIHLILDQAPYHRADKVKEKAKKLVIHLNYLPPYSPNLNPIERLWKVMNEKVRNNRFFNSAKDFRREIERFFTEILPDIGASLGQSINDNFQLEHHHHHH” stands “not soluble”; under “MALIELRHVKKEFSGKAGKVTALKDIDLTVESGDIYGIIGYSGAGKSTLVRLLNGLETPTEGEVEIQGQDIALLPNKELRNFRKKIGMIFQHFNLLWSRTVLENIMLPLEIAGVPKQNRKSRAEELIKLVGLEGRETAYPSQLSGGQKQRVGIARALANNPDILLCDEATSALDPQTTDEVLELLLKINQELNLTVVLITHEMHVIRKICNRVAVMEYGEIVEEGKVIDIFKKPQTEIAKRFIQQEADKNIEETELVVEEMLEQYPNGKIVRLLFHGEQAKLPIISHIVQEYQVEVSIIQGNIQQTKQGAVGSLYIQLLGEEQNILAAIEGLRKLRVETEVIGNE”, “not soluble”.
Regarding “MALMNILPFARFLLDQAVNEGDIAVDATVGNGHDTVYLAERVGDFGHVFGFDIQPEAITAASARLAEHGLCGRATLFERSHSELLEALPADVHGRIAGAVFNLGYLPGGNKQIVTQPESTIEAVRQLLSVMKPGGVIVLVVYHGHPEGKRERDALLDYVRSLDQRRVHALKYEFINRQNNPPFLIALENRADGGA”, the “soluble on expression in E. coli” value is “not soluble”.
Under “MALNNFLTFQLLLLLLRVSSESPWIVAGDVSRIPINFLELAKSPEVFDSMVRIRRKIHENPELGYEEFETSKFIRSELDLIGVKYRFPVAITGIIGYIGTGEPPFVALRADMDALPIQEAVEWEHKSKNPGKMHACGHDGHVAMLLGAAKILQQHRQHLQGTVVLIFQPAEEGLSGAKMMREEGALKNVEAIFGIHLSPRTPFGKAASLAGSFMAGAGAFEAVITGKGGHAAIPQHTIDPVVAASSIVLSLQHLVSRETDPSDSKVVTVTKVNGGNAFNVIPDSITIGGTLRAFTGFTQLQERIKEIITKQAAVHRCNASVNLAPNGNQPMPPTVNNMDLYKKFKKVVRDLLGQEAFVEAVPEMGSEDFSYFAETIPGHFSLLGMQDETQGYASSHSPHYRINEDVLPYGAAIHATMAVQYLKDKASKGSVSGFHDEL” stands “soluble”; under “MALNVNRAVADPFYRYKMPKLSAKVEGKGNGIKTVISNMSEIAKALERPPMYPTKYFGCELGAQTNFDAKNERYIVNGEHDANKLQDILDGFIKKFVLCKSCENPETQLFVRKNNIKSKCKACGCSFDIDLKHKLSTFIMKNPPKIDVDFSKAEQKNGKKTSGADAAAAVAADIIHNSDKGSSNDDDDDDWEPEPVEPNGMLSAGMGKLVLDKDLEKSEEQRLDMLHTFFLKAKEEDRISDAKGQTALRDEAERLELKQKASLLLANVFLDEKVITDKQISKHRNLLLRFTLNDKKAQRYLLGGVEQVIHKHEAELLSKSAHIIKSLYDEDVCEEDSLISWGEKPSSKYVSKSFAKKIIENSQPVLNWLKEAEEETEEESDDEIAFGGDVKESEFLRQQKEKAAREAQQKSAKATNGNAAAASGANDEEDLDIDDI”, “soluble”.
Consider “MALPPGLMVVEEIISSEEEKMLLESVDWTEDTDNQNSQKSLKHRRVKHFGYEFHYENNNVDKDKPLSGGLPDICESFLEKWLRKGYIKHKPDQMTINQYEPGQGIPAHIDTHSAFEDEIVSLSLGSEIVMDFKHPDGIAVPVMLPRRSLLVMTGESRYLWTHGITCRKFDTVQASESLKSGIITSDVGDLTLSKRGLRTSFTFRKVRQTPCNCSYPLVCDSQRKLEHHHHHH”, for which the “soluble on expression in E. coli” value is “soluble”.
Under “MALPRITQKEMTEREQRELKTLLDRARIAHGRVLTNSETNSIKKDYIDKLMVEREAEAKKARQLKKKQAYKPDPEASFSWSANTSTRGRR” stands “soluble”.
Take “MALTSVSVYELSRLGPPQQPVRRRSNSTKVRRKDAELGSVDRKRNPKRNQIQPQHNESITITYMGRPRSPSVDLPTSPPIPSVIRQRRSSSTVAKKLPQSASNPSFLRKQGSSSSLSNGLWTDCIEVVNEIGVMAKMESRKIRRLRMAVYRRVRISDDEEMVLTASRALSKCHGWTLDTCHDYLPVIIDNIISMDTSNRIIAAEGLAAIADSLGERLVKFAGMNSHRIGVDIAAEERSEKAKACIQLLRSVVRKRDWYYRHLDVESIDRLDATMERLKSI”: the “soluble on expression in E. coli” value is “not soluble”.
